Reference: the nanobody polyreactivity screen of Harvey et al. (2022)

Experiment: yeast display, Sf9 membrane polyspecificity reagent, FACS + sequencing; frameworks hold sequencing errors
In short: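 In a synthetic yeast display library (Saccharomyces cerevisiae BJ5465), nanobody expression was induced with galactose for 36–48 hours. FACS gates were set low and high (top ~1%) using anti-HA fluorescence for expression and streptavidin fluorescence for binding of the Sf9 membrane reagent. Each polyreactivity label is drawn from the gate of origin.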

QVQLVESGGGLVQAGGSLRLSCAASGSIYAVYAMGWYRPAPGKERELVATISGRGGSTYYADSVKGRFTISRDNAKNTVYLQMNSLKPEDTAVYYCNARVLFRRERMDSWGQGTQVTVSS
polyreactivity (PSR sort gate): high polyreactivity

QVQLVESGGGLVQAGGSLRLSSAASGRTFPSYAMGWYRQAPGKERELVAAISSSGGSTYYADSVKGRFTISRDNAKNTFYLQMNSLKPEDTAVYYCNKQFPYAKYYIMGYWGQGTQVTVSS
polyreactivity (PSR sort gate): high polyreactivity

QVQLVESGGGLVQAGGSLRLSCAASGRTFYSNAMGWYRQAPGKETELVAAISNRGGSTYYADSLKGRFTISRDNAKNTVYLQMNSLKPEYTAVYYCARYPTKYGYWGQGTQVTVSS
polyreactivity (PSR sort gate): high polyreactivity

QVQLVESGGGLVQAGGSLRLSCAASGRIFYTYAMGWYRQAPGKERELVATISRSSSTYYADSVKGRFTISRDNAKNTVYLQMNSLKPEDTAVYYCATRSASQLLDYWGQGTQVTVSS
polyreactivity (PSR sort gate): low polyreactivity

QVQLVESGGGLVQAGGSLRLSCAASGFTFYYYAMGWYRQAPGKERELVATISSGGSTYYADSVKGRFTISRDNAKNTVYLQMNSLKPEDTAVYYCAADYLIYYLYEGSIKYGYWGQGTQVTVSS
polyreactivity (PSR sort gate): high polyreactivity

QVQHVESGGGLVQAGGSLRLSCAASGFIFRYYTMGLYRQAPGKERELVATISNSGRTYYADSVKGRFTISRDNAKNTVYLQMNSLKPEDTAVYYCNALRASTTALWGGYWGQGTQVTVSS
polyreactivity (PSR sort gate): high polyreactivity

QVQLVESGGGLVQAGGSLRLSCAASGRTFVYNAMGWYRQAPGKERELVAAIDWSGGSTYYADSVKGRFTISRDNAKNTVYLQMNSLKPEDTAVYYCAADYYYPSQMDYWGQGTQVTVSS
polyreactivity (PSR sort gate): low polyreactivity

QVQLVESGGGLVQAGGSLRLSCAASGRIFFIYAMGWYRPAPGKERELVAAISSSGGTTYYADSVKGRFTISRDNAKNTVYLQMNSLKPEDTAVYYCAARSAATHWTFLFYYDFDYWGQGSQVTVSS
polyreactivity (PSR sort gate): low polyreactivity

QVKLVESGGGLVQAGGSLRLSCAASGFTFSRNTMGWYRQAPGKERELVATISFRGGTTYYADSVKGRFTISRDNAKNTVYLQMNSLKPEDTAVYYCAVKVGFVRLLYHYYYWGQGTQVTVSS
polyreactivity (PSR sort gate): high polyreactivity

QVQLQESGGGLVQAGGSLLSCAASGTISSYREMGWYRQAPGKELELVAGIGVGTITYYADSVKGRFTISRDNAKNTVYLQMNSLKPEDTAVYYCAAHIDGNDSHAYWGQGTQVTVSS
polyreactivity (PSR sort gate): low polyreactivity

QVQLVESGGGLVQAGGSLRLSCAASGSTFYFNAMGWYRQAPGKERELVADINYSGTSTYYADSVKGRFTISRDNAKNTVYLQMTSLKPEDTAVYYCAKSLPSSNTSTSYDYWGQGTQVTVSS
polyreactivity (PSR sort gate): low polyreactivity

QVQLVESGGGLVQAGGSLRLSCAASGSTFTSYAMGWYRQAPGKERELVAAITSRGGTSYADSVKGRFTISRDNAKNTVYLQMNSLKPEDTAVYYCAARATYKKYPYVKWYDYWGQGPQVTVSS
polyreactivity (PSR sort gate): high polyreactivity

QVQLVESGGGLVQAGGSLRLSCAASGSIFSYYDMGWYRQAPGKERELVAAITTGGSTNYADSVKGRFTISRDNAKNTVYLQMNSLKPEDTAVYYCNAGRWWSRGYGYWGQVTQVTVSS
polyreactivity (PSR sort gate): high polyreactivity

QVQLVESGGGLVQAGGSLRLSCAASGRNFDPYAMGWYRQAPGKERELVASISRGGSTYADSVKGRFTISRDNAKNTVYLQMNRLKPEVTAVYYCNTSLYTEGDAMDYWGQGTQVTVSS
polyreactivity (PSR sort gate): low polyreactivity

QVQLVESGGGLVQAGGSLRLSCAASGSIFYYYSMGWYRQAPGKERELVATISSTTTTYADSVKGRFTISRDNPINTVYLNMNSMKPEDTAVYYCSFDYWGHGTQVTVSS
polyreactivity (PSR sort gate): low polyreactivity

QVQLVDSGGGLVQAGGSLRLSCAASGFIFIFYTMGWYRQAPGNERELVAAISRSGGSTYYADSVKGRFTISRDNAKNTVYLQMNSLKPEDTAVYYCAARAKLSHRWRSYYWGQGTQVTVSS
polyreactivity (PSR sort gate): high polyreactivity

QVQLVESGGGLVQAGGSLRLSCAASGGTFPLYAMGWYRPAPGKERELVAAIRWSGGRTYYADSVKGRFTISRDNAKNTVYLQMNSLKPEDTAVYYCAADYDDGWGYDYWGQGTQVTVSS
polyreactivity (PSR sort gate): high polyreactivity

QVQLVESGGGLVQAGGSLRLSCAASGSTLGVYVMGWYRQAPGKERELVAAISRNGGSTYYADSVKARFTISRDNAKNTVYLQMNSLKPEDTAVYYCAARTVGRKACFDYWGQGTQVTVSS
polyreactivity (PSR sort gate): high polyreactivity

QVHLVESGGGLVQAGGSLRLSCPASGRTLDSNAMGWYRQAPGKERELVAAISSAGSTNYADSVKGRFTISRDNAKNTVYLQMNSLKPEDTAVYYCAADLIGSHDYWGQGTQVTVSS
polyreactivity (PSR sort gate): low polyreactivity

QVQLVESGGGLVQAGGSLRLSCAASGSTFYIYAMGWYRQAPGKERELVAAITSRGTITSYADSVKGRFTISRDNAKNTVYLQMNSLKPEDTAVYYCAADYWQDGIAYWYDYWGQGTQVTVSS
polyreactivity (PSR sort gate): low polyreactivity

QVQLVESGAGLVQAGGSLSLSCAASVSILRFYAMGWYRQAPGKERELVAAISTRGGSTYYADSVKGRFTISRVNAKYTVYLQMNSLKPEDTAVYYCAKRWPQYTDYKPMYYWGQGTQLTVSS
polyreactivity (PSR sort gate): high polyreactivity

QVQLVESGGGLVQAGGSLRLSCAASGSTFASNAMGWYRQAPGKERELVAAIDWTGASTYYADSVKGRFTISRDNAKNTVYLQMNSLKPEDTAVYYCNADEYWNSRTQGYNYWGQGTQVTVSS
polyreactivity (PSR sort gate): low polyreactivity

QVQLVESGGGLVQAGGSLRLSCAASGRTIGVYAMGWYRQAPGKERELVAGITTSGDSTYYADSVKGRFTISRDNAKNTVYLQMNSLKPEDTAVYYCNADVLFFYTPTSEYDYWGQGTQVTVSS
polyreactivity (PSR sort gate): low polyreactivity

QVQLVDSGGGLVQAGGSLSLSCAASGSTFKHYAMGWYRQAPGKERELVAAISSRGGSTHYADSVKGRFTISRDNAKNTVYLQMNSLKPEDTAVYYCARDTDTLSSRSSDYDYWGQGTQVTVSS
polyreactivity (PSR sort gate): low polyreactivity

QVQLVESGGGLVQAGGSLRLSCAASGLIFSQYAMGWYRQAPGKEREFVARISSSGGSTYYADSVKGRFTISRDNAKNTVYLQMNSLKPEDTAVYYCAAVGGRNIRVWFRTKYDYWGQGTQVTVSS
polyreactivity (PSR sort gate): low polyreactivity

QVQLVESGGGLVQAGGSLRLSCAASGSIFIFYAMGWYRQAPGNERELVADITSDGASTYYADSVKGRFTISRDNAKNTVYLQMNSLKPEDTAVYYCAADYIDSSAYDYWGQGTQVTVSS
polyreactivity (PSR sort gate): low polyreactivity

QVQLVESGGGLVQAGGSLRLSCAASGSIFRFYTMGWYRQAPGKERELVASITWTGGSTYYADSVKGRFTISRDNAKNTVYLQMNSLKPEDTAVYYCAARRYRRLVGRYDYWGQGTQVTVSS
polyreactivity (PSR sort gate): low polyreactivity

QVQLVESGGGLVQAGGSLRLSCAASRRTFSYNTMGWYRQAPGTERELVARITWGGGSTNYADSVKGRFTISRDNAKNTVYLQMNSLKPEDTAVYYCAAGPSVPYGPQKVDYWGQGTQVTVSS
polyreactivity (PSR sort gate): low polyreactivity

QVQLVESGGGLVQAGGSLRLSCAASGRTFGGYTMGWYRQAPGKERALVAAIRWSGGRTYYADSVKGRFTISRDNAKNTVYLQMNSLKPEDTAVYYCNARYVFPYYWGQGTQVTVSS
polyreactivity (PSR sort gate): high polyreactivity

QVQLVESGGGLVQAGGSLRLSCAAPGSTFVAYAMGWYRQAPGKERELVAAISSVGRTNYADSVKGRFTISRDNAKNTVYLQMNSLKPEDTAVYYCAAVYVDRRKRSYYWGQGTQVTVSS
polyreactivity (PSR sort gate): high polyreactivity

QVQLVESGGGLVQAGGSLRLSSAAAGRLLSRDAMGWYRQAPGKERELVATLSSGGGTYYADSVKGRFTISRDNSKNTVYLQMNSLKRVDTAVYYCAVQAWYGRYYYWGQGTQVTVSS
polyreactivity (PSR sort gate): high polyreactivity

QVQLVESGGGLVQAGGSLRLSCAASGSIFVDNAMGWYRQAPGKERELVAVITLRSGSTNYADSVKGRFTISRDNAKNTVYLQMNSLKPEDTAVYYCAADDTYHDYQRDTDDDYWGQGTQVTVSS
polyreactivity (PSR sort gate): low polyreactivity

QVQLVESGGGLVQEGGSLRLSCAASGSIFSIYAMGWYRQAPGKERELVAAIDSGTSTTYADSVKGRFTISRDNAKNTVYLQMNSLKPEDTAVYYCAAALYSDVAAVATYGYYWGQGTQVTVSS
polyreactivity (PSR sort gate): low polyreactivity

QVQLVESGGGLVQAGGSLPLSCAASGATFTFYTMRSYRQAPGKERELVATISWRGGNTYYADSVKGRFTISRDNAKNTVYLQMNSLKPEDTAVYYCNAAPYRRGYGFREYDYWGQGTQVTVSS
polyreactivity (PSR sort gate): high polyreactivity

QVQLVESGGGLVQAGGSLRLSCAASGSTFGGYAMGWYRQAPGKEWELVAAISWNGDSTYYADSVKGRFTISRDNAKNTVYLQMNSLKPEDTAVYYCAAPYSGPYRSYEYYWGQGTQVTVSS
polyreactivity (PSR sort gate): low polyreactivity

QVQLVESGGGLVQAGGSLRLSGAASGSTFIINAMGWSSQAPGKELELVAAISGRGTRTYYADSVKGRFTISRDNAKNTVYLQMNSLNPEDTAVYSCAALDTAGPYNTLDIYDHWGQGTQVTVSS
polyreactivity (PSR sort gate): high polyreactivity

QVQLVESGGGLVQAGGSLRLSCAASGSIFTWYAMGWYRQAPGKEREFVDSITGSGGSTYYADSVKGRFTISRDNAKNTVYLQMNSLKPEDTAVYYCAKGHVYSSYRYRLRSTAFGYWGQGTQVTVSS
polyreactivity (PSR sort gate): high polyreactivity

QVQLVESGGGLVQAGGSLRLSCAASGFTFGRYAMGWYRQAPGKERELVAAIATRGGSTYYADSVKGRFTISRDNAMNTVYLQMNSLKPEDTAVYYCAAGGYYVRYDYWGQGTQVTVSS
polyreactivity (PSR sort gate): high polyreactivity

QVQLVESGGGLVQAGGSLRLSCAASGSTFPFNAMGWYRQAPGKERELVAGIRSRGGSTYYADSVKGRFTISRDNAKNTVYLQMNSLIPEDTAVSSCAKVYKDRDDLFYYWGQGTQVTVSS
polyreactivity (PSR sort gate): low polyreactivity

QVQLVESGGGLVQAGGSLRLSCAASGSIFRPYAMGWYRQAPGKERELVATINQSGSSTYYADSVKGRFTISRDNAKNTVYLQKNSLKPEDTAVYYCAVVYTYHGYTYDYWGQGTQVTVSS
polyreactivity (PSR sort gate): low polyreactivity

QVQLVESGGGLVQAGGSLRLSCAASGFTFYRYVMGWYRQAPGKERELVAAISWNGGRTYYADSVKGRFTISRDNAKNTVYLQMNSLKPEDTAVYYCAAVPGSRSYGGDYWGQGTQVTVSS
polyreactivity (PSR sort gate): high polyreactivity

QVQLVESGGGLVQAGGSLRLSCSASGSTFYYNAMGWYRQAPGKERELVARISRSGGSTYADSVKGRFTISRDNAKNTVYLQMNSLKPEDTAVYYCNAIGYTGPVAYPEYDYWGQGTQVTVSS
polyreactivity (PSR sort gate): low polyreactivity

QVQLVESGGGLVQAGGRLRLSCAASARIFYSKVMGWYRQAPGKERELVAAISGRTGGTYYADSVKGRFTISRDNAKNTVYLQMNSLKPEDTAVYYCAARVIDYYGSGPYDYWGQGTQVTVSS
polyreactivity (PSR sort gate): low polyreactivity
